Laboratory results published in the RNAGym collection of RNA variant scans (doi:10.1073/pnas.2313332121).
Variants at the floor of the assay were thinned out.

B1: TPR 5TU (parent)
chain: GGAUCUUCUCGAUCUAACAAAAAAGACAAAUCUGCCACAAAGCUUGAGAGCAUCUUCGGAUGCAGAGGCGGCAGCCUUCGGUGGCGCGAUAGCGCCAACGUUCUCAACUAUGACACGCAAAACGCGUGCUCCGUUGAAUGGAGUUUAUCAUG

Variants of: B1
Assay: polymerase ribozyme fitness, log enrichment relative to wild type (log ratio); higher = more active; in vitro selection for triplet polymerase activity
Summary of the method: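 Mutant libraries of each subunit of a heterodimeric triplet polymerase ribozyme were built by PCR and transcribed. Each library went through one round of in vitro selection in triplicate: annealing with biotinylated primer, partner subunit and triplets, frozen incubation at −7 °C, gel excision of extended constructs, streptavidin-bead capture and RT-PCR. Input and output libraries were Illumina-sequenced; only genotypes with ≥10 input reads and ≥1 read per output were kept. Fitness is log2(genotype enrichment/wild-type enrichment), using inverse-variance-weighted replicate averages.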

Row | Variant | polymerase ribozyme fitness (log ratio)
1 | A20G A41U C51A U56A C76U G86U G88U A91U C123A U144A C149A | ≤ -4.2
2 | U90G C116G | -3.78
3 | A20G G48A A119C A121U G136U | -3.51
4 | A3U U15C G81U A97U G128U | -3.58
5 | U9G C14G A110C C123U G141A | ≤ -4.2
6 | U53G A60U C69U C131G | ≤ -4.2
7 | C63U C99U C116A | 0.561
8 | A47G G59C U61A G92C G141A U148C | ≤ -4.2
9 | A60U U61A G86A C93A A110C G133A | ≤ -4.2
10 | A40U C63A C72A C76A C103G | ≤ -4.2
11 | C105U G124U | -0.374
12 | A23U C93A U135C | ≤ -4.2
13 | U9A A22U A39G C96G U109G | ≤ -4.2
14 | A17G G84A A147C | -0.273
15 | A40C U56G A64U C87U G143U | ≤ -4.2
16 | U15A A29C C35A G59A C76U G143C | ≤ -4.2
17 | C14G A24U A30U U44A C54A C87U G112U | -4.11
18 | C10G C54U U55A C79G C93U A98G C116G A122U | ≤ -4.2
19 | C32A C36G A47G C72G A89G A91G | ≤ -4.2
20 | U53A G88U | ≤ -4.2
21 | C76A A107G C123U A142C | -3.65
22 | A40C C76U | 0.0931
23 | C18U C85A U144G | 0.299
24 | A3U C10U C54A U55A | -1.97

Row | Variant | polymerase ribozyme fitness (log ratio)
25 | U31C C76U C96U G136C U144C U148C | -3.9
26 | A12U C18G C32A G84A C105U U127G | ≤ -4.2
27 | A23U C38U C114U G126A | ≤ -4.2
28 | U4A U6A A17U A30U C105U U134G | ≤ -4.2
29 | U139G C149G | -3.88
30 | G68A G83A C116U | ≤ -4.2
31 | G11U U53A C132U U146G | -3.51
32 | A41U G136A | 0.0389
33 | C35U A60G G136U | -3.08
34 | G84U G124C G140U U146C | ≤ -4.2
35 | A22U A52G C75U G83U U134C A142C | -3.51
36 | A21C A24U G46U C57U C93U | -1.65
37 | A29G C35A U56C C69G G71U A91G A98U A138G | ≤ -4.2
38 | C96A A122C U139G A150C | -3.67
39 | A24U A52C C87A | ≤ -4.2
40 | G59A G84A | -2.24
41 | C18U A28U C38A A47C C85A U145C | ≤ -4.2
42 | G34C C51A G58A G59C C96A A107U | ≤ -4.2
43 | A37C A52G | -0.00493
44 | A91G U130G A150G | ≤ -4.2
45 | U56A C57A C85U C87U U144A U146G | ≤ -4.2
46 | C85A G143C | -3.01
47 | A52C C69A C87U U90C A142U | ≤ -4.2
48 | A20U A60C A73G | -2.81

Row | Variant | polymerase ribozyme fitness (log ratio)
49 | A52G C93A | -3.25
50 | A21U G84U | -1.29
51 | G58A G86A | -1.63
52 | A24U A60G C79G C96G U109C | ≤ -4.2
53 | A49C U56A A64G C87U | ≤ -4.2
54 | G62U C72U C93U A122G | -3.31
55 | A24G U31C | -3.52
56 | A73U C75G U78A A89G C93G C95A U146G | ≤ -4.2
57 | U33A U44G A107G A122G C132U | ≤ -4.2
58 | C8U A60U | -3.79
59 | A16C A20G C27U A60G G117A | -3.38
60 | G84A G140A | -3.27
61 | G46A A52C U139G | -3.91
62 | U9A A26U G92U A142U | ≤ -4.2
63 | C96A U151G | ≤ -4.2
64 | U6G G50C U56A G65A A73C C96U U139C | ≤ -4.2
65 | C8G G84A | -3.43
66 | U55A G83A | -0.501
67 | A3U G58A C87G U101C A113U C131G | ≤ -4.2
68 | A60C U82A G84U U102G G126U | ≤ -4.2
69 | G62A C93A | -1.93
70 | G124C G143U | -3.2
71 | U56A G68C U77A C96G U104G C108U G141C | ≤ -4.2
72 | U6G U31C U55A C95U A98G G141C | -1.61

Row | Variant | polymerase ribozyme fitness (log ratio)
73 | U13C A22G A49U G68C C79G | ≤ -4.2
74 | A52G A150C | -3.43
75 | C103A U146C | -1.49
76 | A23C C57U G74C G92U U102A A115C G143C U151A | ≤ -4.2
77 | C54G C95A C118G | -2.03
78 | A22U G141C | 1.14
79 | A23C A60U G84U C105A | ≤ -4.2
80 | G71C U111G | ≤ -4.2
81 | C27U A39U A73G C79U C93A | ≤ -4.2
82 | C38U G48A A60C C72G C96A C99U C114G U139G U148G | ≤ -4.2
83 | C27G A28U G50U C87G G140C | -3.94
84 | G88A G92A C132G U148A | ≤ -4.2
85 | U6G G80C C149A | ≤ -4.2
86 | A30U U56G U82C G84U C95U | ≤ -4.2
87 | U9G A24U C96U U144G | ≤ -4.2
88 | A20U U33C G71A U104A A106G A107G A137C | ≤ -4.2
89 | A73U U82A C95U | -1.04
90 | G25U C103G | -3.2
91 | G58A A73G G88C A150U | ≤ -4.2
92 | A41U C51A G86C G88C | ≤ -4.2
93 | A21G G46C U82G G88U C95G A98C | ≤ -4.2
94 | C27U U45A G71A C75A A89U C118A | ≤ -4.2
95 | G86A U101G | -0.828
96 | G84A A91U | ≤ -4.2

Row | Variant | polymerase ribozyme fitness (log ratio)
97 | C54U C63U G94U G143A | -2.26
98 | A47U G70U A122G | -3.45
99 | U6A C14U G65U A91G U148A | ≤ -4.2
100 | G86U G88A | ≤ -4.2
101 | A12C C76A A91U | ≤ -4.2
102 | A17G A20U A37G U53G A98U A106U G126C G136C G143U | ≤ -4.2
103 | A47C A89U A150G | -1.84
104 | A23C G25C C27G U53A C54G A66G G80A A91G G92A C99U | ≤ -4.2
105 | A21C U56G C85A C87U G92A | -3.51
106 | A16G A40G G86C | ≤ -4.2
107 | U61A C103G A115U | ≤ -4.2
108 | A28U A29G A40G C85G U90G U134G | ≤ -4.2
109 | A39G A40G A41U G58A G59U U61A C79A U144A G152C | ≤ -4.2
110 | A39U G62A | -2.58
111 | G59C C96U A106G C132U U145C | -0.905
112 | U9A U31G C57U G74C G92C | ≤ -4.2
113 | U56A G58A C103A C125A | -0.231
114 | C85U A89C | -1.13
115 | A37G C93U C116G | -2.65
116 | A3G U6A U31G G88U | ≤ -4.2
117 | A17U A22U U44A G83C C131U | ≤ -4.2
118 | A16G C57G C76A | -1.31
119 | G25A C51U G59C G88A U102G G136U | ≤ -4.2
120 | A40G A41U | -2.41

Row | Variant | polymerase ribozyme fitness (log ratio)
121 | U33G G124A U134G | ≤ -4.2
122 | A19G U78G C87G A98U U101G G126A | ≤ -4.2
123 | G50A G84A A142C | -3.15
124 | A21C C32G G50A C93U A119U | ≤ -4.2
125 | A37C A52C U53A G92A | ≤ -4.2
126 | A73U G84A | -2.32
127 | C103G A120U U146G | -1.37
128 | A21G C85U | -0.132
129 | U4C G50C U56A G74A C87A G88U C116U | ≤ -4.2
130 | A40C U77C C116A C125U | ≤ -4.2
131 | C57G A73G C116U | -0.324
132 | A119U U139C | -3.94
133 | U134C | 0.0692
134 | C72U C85U C95U | -0.261
135 | A22G U56A C96G U101C G143A U148A | ≤ -4.2
136 | A3G A24U C69G C93G A119G C132G U139A | ≤ -4.2
137 | U6G A24U C79A G84U C85U G117U G141A | ≤ -4.2
138 | A52C C69G G74C | ≤ -4.2
139 | G11C G50A U56A G83U C93A U127C U135C | ≤ -4.2
140 | U61A A98U U134G G140U U145A | ≤ -4.2
141 | A73U C87U G92A | 0.224
142 | A26U A28U G81C U90A | ≤ -4.2
143 | A24U G46C A60C U102G | ≤ -4.2
144 | U61A G74A C76U C87A C108U A142U | ≤ -4.2

Row | Variant | polymerase ribozyme fitness (log ratio)
145 | G46C G74C C87A | ≤ -4.2
146 | A37G A40U A115G A142U | ≤ -4.2
147 | U45A A64U G67C G74A G83A A120G | ≤ -4.2
148 | A28C A52G C76G A91U U146G | ≤ -4.2
149 | A40U G86U C93U C149U | -3.56
150 | A23C A40U C95U U134A U151A | ≤ -4.2
151 | A40G A49G | -3.58
152 | G68A G81A C95A A150C G152A | ≤ -4.2
153 | A52G C85U | -0.204
154 | C51A G94C A107U | ≤ -4.2
155 | C10U A39C C57A G59C A66U G67U G81A C85G C105A U135C G140C G143C | ≤ -4.2
156 | C43U U56A A66C C75A C85G | ≤ -4.2
157 | A24U C93U U104G | -1.84
158 | C96G U148A | -3.53
159 | C14G A28C A47G U53A G84U | ≤ -4.2
160 | G83A C108U C125G | -3.77
161 | U7G A60G | -2.7
162 | A23U A40U A73G | ≤ -4.2
163 | U55G G83A A115C C123U G136U | -2.92
164 | A52G U77G A91C | ≤ -4.2
165 | C57A U101G | 0.71
166 | C38U U55A G59C U135C | -1.98
167 | A24C G58A | ≤ -4.2
